# Source: paper PMC11929097, “Stabilized designs of the malaria adhesin protein PvRBP2b for use as a potential diagnostic for Plasmodium vivax [image fx2.gif]” (The Journal of Biological Chemistry, 2025)
# Where a chain is given by its changes, count along the chain named. Several values for one entry are separate records, joined by “and”; a condition that tells them apart may be missing. Equal values may be shown once.
# T1: WHT2483 (PROSS-MPNN stabilized design of PvRBP2b_(169-470)) (Plasmodium vivax strain Salvador I …, Gln378Leu | Arg418Glu)
# T1 construct: PvRBP2b, P. vivax strain Salvador I, PVX_094255, residues 169-470 with 19 designed stabilising mutations; 19 mutations relative to the parental protein; crystal structure PDB 9DZC solved here
# T1 chain: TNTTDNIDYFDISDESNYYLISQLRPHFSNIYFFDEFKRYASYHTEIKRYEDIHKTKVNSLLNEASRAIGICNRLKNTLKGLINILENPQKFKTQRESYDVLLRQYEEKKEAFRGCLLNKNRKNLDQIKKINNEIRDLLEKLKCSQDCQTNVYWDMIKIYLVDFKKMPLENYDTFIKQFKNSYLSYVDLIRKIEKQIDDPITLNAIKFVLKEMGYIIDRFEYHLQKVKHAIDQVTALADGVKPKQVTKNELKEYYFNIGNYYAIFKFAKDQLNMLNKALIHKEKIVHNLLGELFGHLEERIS
# T2: WHT2484 (PROSS-MPNN stabilized design of PvRBP2b_(169-470)) (Plasmodium vivax strain Salvador I …, Lys248Leu | Met324Phe | Gln378Leu | Arg418Glu)
# T2 construct: PvRBP2b, P. vivax strain Salvador I, PVX_094255, residues 169-470 with 26 designed stabilising mutations; 26 mutations relative to the parental protein; crystal structure PDB 9DZD solved here
# T2 chain: T1 chain with K80L, K141R, M156F, I193Y, N204Q, V234I, L237I
# B1: human mAb 251249 (antibody, V domains shown)
# VH: EVQLVESGGGLVKPGGSLRLSCEASGFLFSSYSMNWVRQAPGKGLEWVSSITGYSSEVFYTDSVKGRFTVSRDNSKNSLYLQMDSLRAEDTAVYYCARALTIFGVVITDYWFFDLWGRGTLVTVSS
# VL: EIVLTQSPATLSLSPGDRATLSCRASQSVTTFLAWYQQKPGQAPRLLIYDVSNRATGIPARFSGSGSGTDFTLTISSLEPEDFAVYYCQQRSNWGLTFGGGTKVEIK
# notes: naturally acquired human mAb, recombinant IgG captured by its Fc; source: Expi293 HEK cells, transfected, purified (protein A, SEC)
# B2: human mAb 241242 (antibody, V domains shown)
# VH: EVQLLESGGGLVQPGGSLRLSCAVSGFTFRNYALSWVRQAPGKGLDWVSTISASGGATYYADSVKGHFTISRDNSKNILYLDMKSLRAEDTAIYYCARDGGSYTPYFFLDSWGQGALVTVSS
# VL: SYELTQPASVSVAPGQTAQITCGGNSIGRKSIHWYQHKPGQAPVLVISYDSDRPSGIPERFSGSNSGNTATLTISKVEAGDEADFYCQVRDSDNDHVVFGGGTKLTVL
# notes: as for B1
# B3: human mAb 237235 (antibody, V domains shown)
# VH: QVQLVESGGGVVQPGRSLRLSCAASGFMFNSYGMHWVRQAPGKGLEWMAFISYDGSDDYYGDSVKGRITISRDNSKNTLFLHINSLRTEDTAVYYCAKESNYGENAFDVWGHGTMVTVSS
# VL: QSALTQPRSVSGSPGQSVTISCTGTSNDVGFYNFVSWYQHHPGKAPKLMIYDVTERPSGVPDRFSGSKSGNTASLTISGLQAEDEAEYYCCSYAGTYTFVFGHGTKVTVL
# notes: as for B1
# B4: human mAb 243244 (antibody, V domains shown)
# VH: QVQLVESGGGVVQSGKSLRVSCAASGFTFSSYGMHWVRQAPGKGLEWVAFISYDGDNKYSADSVKGRLTISRDNSKNTLYLQMNSLRPEDTAVYYCAKESNYGENAFDIWGQGTMVTVSS
# VL: B3 VL with N27S, M49I, T54S, T76S, A82P, E87D, H103S
# notes: as for B1
# B5: human mAb 283284 (antibody, V domains shown)
# VH: QVQLQQWGAGLLKPSETLALTCTVYGGSSSGYYWNWIRQSPGKGLEWIGEISDSGSTIYNPSLESRVTMSVDTSKNQFSLKLTSVTAADTAVYYCAKAILTRYNWLDPWSQGTLVTVSS
# VL: DIVMTQSPSSLSASVGDRISISCRASQGVNSALAWYQQKPGKAPKLLIYDASTLESGVPSRFSGSGSGTDFALTINSLQPEDFATYYCQQFNSYPLTFGGGTKVEIK
# notes: as for B1
# B6: human mAb 253245 (antibody, V domains shown)
# VH: EVQLVQSGAEVKKPGSSMKVSCKASGGTFNRYVFSWVRQAPGQGLEWMGGILPILETTYYAKNFKGRVTITADESTSTVYMELSSLTSEDTAVYFCARDEHDYVWGSYRPSLTGPWGQGTLVTVSS
# VL: QSALTQPPSTSGSPGQSVTISCTGTGIDVGGFSYVSWFQYHPGKAPKLIIFEVTKRPSGVPDRFSGSKSGNTASLTISGLQADDEAEYYCSSYAVNNNFVFGTGTKVTVL
# notes: as for B1
# B7: human mAb 258259 (antibody, V domains shown)
# VH: EVQLLESGGGLVRPGGSQRLSCAASGFTFTPYAMTWVRQAPGKGLEWLSTISGSGGSTYYADSVKGRFTISRDNSKNMLYLQMNSLTAEDTALYYCTKDKDEYTFGHNAFDVWGQGTMVTVSS
# VL: SYELTQAPSVSVAPGQTARITCGGDNIGRKTVNWYQQKPGQAPVLVIYYDNDRPSGIPERFSGSNSGNMATLSISRVEVGDEADYYCQVWDSNNDHPVFGGGTKLTVV
# notes: as for B1
# B8: human mAb 273264 (antibody, V domains shown)
# VH: B7 VH with Y59S, M78I, N84D, T87R, Q115R
# VL: B7 VL with K30T, T31S, N33H, Y48F
# notes: as for B1
# Molecular target: T3, parental PvRBP2b_(169-470) (Plasmodium vivax reticulocyte-binding protein 2b, N-terminal domain) (Plasmodium vivax strain Salvador I, UniProt A5K736)
# T3 construct: TEV cleavage site between the His tag and the protein; pPROEX HTb vector; also called parental construct; parental protein
# Assay: BLI; Octet RED96; human mAb loaded on anti-human IgG Fc capture sensor tips; parental PvRBP2b169-470 or design in solution, 2-fold series 0.63 to 10 nM; 25 °C; PBS, 0.1% bovine serum albumin, 0.05% Tween-20; global fit 1:1 model; two independent experiments
# Conditions: both partners purified
Binder,Kd [nM],koff [s⁻¹],kon
B1,< 0.001,< 1e-07,1.63e+06 M⁻¹ s⁻¹ and 1.25e+06 M⁻¹ s⁻¹
B2,< 0.001,< 1e-07,1.24e+06 M⁻¹ s⁻¹ and 1.52e+06 M⁻¹ s⁻¹
B3,< 0.001,< 1e-07,1.78e+06 M⁻¹ s⁻¹ and 1.31e+06 M⁻¹ s⁻¹
B4,< 0.001,< 1e-07,1.75e+06 M⁻¹ s⁻¹ and 1.32e+06 M⁻¹ s⁻¹
B5,< 0.001,< 1e-07,1.48e+06 M⁻¹ s⁻¹ and 994000 M⁻¹ s⁻¹
B6,< 0.001,< 1e-07,1.58e+06 M⁻¹ s⁻¹ and 1.18e+06 M⁻¹ s⁻¹
B7,< 0.001,< 1e-07,1.33e+06 M⁻¹ s⁻¹ and 976000 M⁻¹ s⁻¹
B8,< 0.001,< 1e-07,1.18e+06 M⁻¹ s⁻¹ and 1e+06 M⁻¹ s⁻¹

# Molecular target: T1, WHT2483 (PROSS-MPNN stabilized design …)
# Assay: as above
# Conditions: both partners purified
Binder,kon,Kd,koff
B1,978000 M⁻¹ s⁻¹ and 1.37e+06 M⁻¹ s⁻¹,–,–
B3,–,≤ 0.01 nM,–
B4,1.02e+06 M⁻¹ s⁻¹ and 1.24e+06 M⁻¹ s⁻¹,0.053 nM and 0.018 nM,–
B5,838000 M⁻¹ s⁻¹ and 910000 M⁻¹ s⁻¹,–,–
B6,1.04e+06 M⁻¹ s⁻¹ and 1.26e+06 M⁻¹ s⁻¹,–,–
B7,778000 M⁻¹ s⁻¹ and 949000 M⁻¹ s⁻¹,0.085 nM and 0.059 nM,6.59e-05 s⁻¹ and 5.6e-05 s⁻¹
B8,778000 M⁻¹ s⁻¹ and 1.07e+06 M⁻¹ s⁻¹,0.089 nM and 0.154 nM,6.92e-05 s⁻¹ and 0.000165 s⁻¹

# Molecular target: T2, WHT2484 (PROSS-MPNN stabilized design …)
# Assay: as above
# Conditions: both partners purified
Binder,Kd,kon,koff
B1,0.11 nM and 0.314 nM,956000 M⁻¹ s⁻¹ and 1.26e+06 M⁻¹ s⁻¹,–
B2,–,956000 M⁻¹ s⁻¹ and 1.18e+06 M⁻¹ s⁻¹,–
B3,–,658000 M⁻¹ s⁻¹ and 745000 M⁻¹ s⁻¹,–
B4,–,705000 M⁻¹ s⁻¹ and 780000 M⁻¹ s⁻¹,–
B5,0.112 nM and 0.074 nM,1.01e+06 M⁻¹ s⁻¹ and 936000 M⁻¹ s⁻¹,0.000113 s⁻¹ and 6.89e-05 s⁻¹
B6,–,1.06e+06 M⁻¹ s⁻¹ and 1.12e+06 M⁻¹ s⁻¹,–
B7,0.069 nM and 0.081 nM,778000 M⁻¹ s⁻¹ and 953000 M⁻¹ s⁻¹,5.39e-05 s⁻¹ and 7.69e-05 s⁻¹
B8,0.139 nM and 0.101 nM,893000 M⁻¹ s⁻¹ and 1.05e+06 M⁻¹ s⁻¹,0.000124 s⁻¹ and 0.000106 s⁻¹
